Results taken from patent US20100075326A1.
Where two headings read alike, the source gives them in different places. Blank lines part the entries; values can stand above or below the substance they belong to.

How the values were obtained:
[1] = target: LFA-1 I domain L295P, soluble, refolded from E. coli (UniProt P20701); test: SPR (Biacore), I domain injected over scFv AL-57 chip, 10 mM MgCl2
[2] = target: LFA-1 I domain F265S, soluble, refolded from E. coli (UniProt P20701); test: as above
[3] = target: high affinity (HA) LFA-1 I domain K287C/K294C, soluble, refolded from E. coli (UniProt P20701); test: as above
[4] = target: high affinity (HA) LFA-1 I domain K287C/K294C, YS2H bait fused to Aga2 with C-terminal FLAG tag (yeast) (UniProt P20701); test: YS2H: I domain bait on the yeast surface (Aga2 fusion, Flag tag), secreted scFv prey with Myc tag; flow cytometry, mean ± standard error of three measurements; paragraph 71 says goat polyclonal anti-murine antibody was the primary antibody for detecting TS1/22; Flag (bait) MFI 44±2
[5] = target: the wild-type and HA I domain; test: predicted from YS2H (flow cytometry of Myc and FLAG tags, Langmuir equation)
[6] = target: wild-type LFA-1 I domain, YS2H bait fused to Aga2 with C-terminal FLAG tag (yeast) (UniProt P20701); test: YS2H: I domain bait on the yeast surface (Aga2 fusion, Flag tag), secreted scFv prey with Myc tag; flow cytometry, mean ± standard error of three measurements; paragraph 71 says goat polyclonal anti-murine antibody was the primary antibody for detecting TS1/22; Flag (bait) MFI 40±0.3
[7] = target: high affinity (HA) LFA-1 I domain K287C/K294C, YS2H bait fused to Aga2 with C-terminal FLAG tag (yeast) (UniProt P20701); test: YS2H: I domain bait on the yeast surface (Aga2 fusion, Flag tag), secreted scFv prey with Myc tag; flow cytometry with anti-Myc antibody, mean ± standard error of three measurements; Flag (bait) MFI 85±7
[8] = target: LFA-1 I domain L295P, YS2H bait fused to Aga2 with C-terminal FLAG tag (yeast) (UniProt P20701); test: YS2H: I domain mutant bait on the yeast surface, secreted scFv AL-57 prey with Myc tag; flow cytometry with anti-Myc antibody, 10 mM MgCl2, mean ± standard error of three measurements; Flag (bait) MFI 40±2
[9] = target: LFA-1 I domain F265S, YS2H bait fused to Aga2 with C-terminal FLAG tag (yeast) (UniProt P20701); test: predicted from YS2H (flow cytometry of Myc and FLAG tags, Langmuir equation)
[10] = target: LFA-1 I domain L295P, YS2H bait fused to Aga2 with C-terminal FLAG tag (yeast) (UniProt P20701); test: YS2H as in the row 'Myc', but labelled without metal ions with 10 mM EDTA (row 'Myc+ EDTA'); Flag (bait) MFI 40±2
[11] = target: LFA-1 I domain F265S, YS2H bait fused to Aga2 with C-terminal FLAG tag (yeast) (UniProt P20701); test: YS2H as in the row 'Myc', but labelled without metal ions with 10 mM EDTA (row 'Myc+ EDTA'); Flag (bait) MFI 52±8
[12] = target: LFA-1 I domain F265S, YS2H bait fused to Aga2 with C-terminal FLAG tag (yeast) (UniProt P20701); test: YS2H: I domain mutant bait on the yeast surface, secreted scFv AL-57 prey with Myc tag; flow cytometry with anti-Myc antibody, 10 mM MgCl2, mean ± standard error of three measurements; Flag (bait) MFI 52±8
[13] = target: LFA-1 I domain L295P, YS2H bait fused to Aga2 with C-terminal FLAG tag (yeast) (UniProt P20701); test: predicted from YS2H (flow cytometry of Myc and FLAG tags, Langmuir equation)
[14] = target: LFA-1 I domain F265S, YS2H bait fused to Aga2 with C-terminal FLAG tag (yeast) (UniProt P20701); test: as above; remark: listed apart in the source
[15] = target: high affinity (HA) LFA-1 I domain K287C/K294C, YS2H bait fused to Aga2 with C-terminal FLAG tag (yeast) (UniProt P20701); test: as above
[16] = target: wild-type LFA-1 I domain, YS2H bait fused to Aga2 with C-terminal FLAG tag (yeast) (UniProt P20701); test: YS2H: I domain bait on the yeast surface (Aga2 fusion, Flag tag), secreted scFv prey with Myc tag; flow cytometry with anti-Myc antibody, mean ± standard error of three measurements; Flag (bait) MFI 79±1

Kd [1]: 243 nM | Kd [2]: 15.7 nM | Kd [3]: 32.6 nM
Substance: scFv AL-57, soluble, refolded from E. coli

MFI (row 'Myc') [4]: 40 | Kd [5]: 148 to 237 nM | MFI (row 'Myc') [6]: 38
Substance: scFv TS1/22, secreted YS2H prey with C-terminal Myc tag

MFI (anti-Myc) [7]: 80 | MFI (anti-Myc) [8]: 13 | Kd [9]: 148 to 237 nM | MFI (anti-Myc, with EDTA) [10]: 10 | MFI (anti-Myc, with EDTA) [11]: 15 | MFI (anti-Myc) [12]: 32 | Kd [13]: 440 nM | Kd [14]: 237 nM | Kd [15]: 151 nM | MFI (anti-Myc) [16]: 12
Substance: scFv AL-57, secreted YS2H prey with C-terminal Myc tag
